What was measured:
[1] = biological target: T1, Kv2.1-VAPA association (Rattus norvegicus, UniProt P15387+Q9Z270); assay: Proximity ligation assay (PLA) of Kv2.1-VAPA association in cortical neurons; format: cell-based; conditions: 10 μM peptide, 2-hour treatment, means+/-SEM (FIG. 3C)
T1 construct: endogenous in cells; host or cells: primary rat cortical neurons (untransfected, fixed and immunolabelled)
T1 sequence (P15387 1-857): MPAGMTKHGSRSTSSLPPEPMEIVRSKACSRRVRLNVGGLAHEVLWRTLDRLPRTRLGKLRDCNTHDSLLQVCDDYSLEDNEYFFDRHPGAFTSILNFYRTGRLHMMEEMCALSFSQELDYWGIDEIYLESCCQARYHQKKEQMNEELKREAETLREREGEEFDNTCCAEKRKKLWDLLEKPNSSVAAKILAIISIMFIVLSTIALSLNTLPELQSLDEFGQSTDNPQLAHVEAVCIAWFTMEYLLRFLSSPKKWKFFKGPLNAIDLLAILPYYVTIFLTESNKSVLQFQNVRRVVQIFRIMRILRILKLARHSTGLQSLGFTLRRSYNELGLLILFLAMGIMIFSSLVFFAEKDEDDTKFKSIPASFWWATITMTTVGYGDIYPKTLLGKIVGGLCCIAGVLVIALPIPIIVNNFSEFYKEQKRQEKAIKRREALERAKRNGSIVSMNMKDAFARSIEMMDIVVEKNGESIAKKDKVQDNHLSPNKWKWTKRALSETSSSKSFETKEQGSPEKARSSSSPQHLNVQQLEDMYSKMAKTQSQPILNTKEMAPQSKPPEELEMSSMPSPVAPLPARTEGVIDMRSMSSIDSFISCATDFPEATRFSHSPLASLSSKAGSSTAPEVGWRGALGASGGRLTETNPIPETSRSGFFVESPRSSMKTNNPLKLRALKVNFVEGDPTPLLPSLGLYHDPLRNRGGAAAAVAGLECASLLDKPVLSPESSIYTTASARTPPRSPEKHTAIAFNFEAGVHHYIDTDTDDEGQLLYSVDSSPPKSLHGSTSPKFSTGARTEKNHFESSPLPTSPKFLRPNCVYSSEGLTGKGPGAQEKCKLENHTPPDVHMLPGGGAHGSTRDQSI
T1 sequence (Q9Z270 2-249 limits assumed): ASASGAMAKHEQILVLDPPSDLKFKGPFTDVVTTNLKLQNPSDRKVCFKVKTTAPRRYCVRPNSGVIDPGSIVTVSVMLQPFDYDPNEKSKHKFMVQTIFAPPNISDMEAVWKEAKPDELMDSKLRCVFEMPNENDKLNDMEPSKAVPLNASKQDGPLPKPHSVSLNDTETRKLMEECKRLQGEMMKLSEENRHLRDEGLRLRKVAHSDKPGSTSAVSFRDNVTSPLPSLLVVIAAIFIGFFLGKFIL
Experimental: Duolink proximity ligation assay (PLA) technology (Sigma-Aldrich, St. Louis, Mo.) was utilized to assess in situ protein-protein interaction between Kv2.1 and vesicle-associated […] protein (VAMP)-associated protein A (VAPA). Primary cortical neurons on glass coverslips were treated in 24-well plates with vehicle (dH2O), TAT-Sc-2 (10 μM), or TAT-DP-2 (10 μM) for 2 hours at 37° C./5% CO2. Neurons were then rinsed with 2 mL ice-cold sterile PBS and then transferred to 1 mL 4% paraformaldehyde (PFA) in PBS for 20 minutes to fix. Coverslips were transferred to 1 mL 0.1 M glycine (in PBS) to quench fixation and rinsed three times in 1 mL PBS. […]
PLA puncta were imaged on a Nikon A1+ confocal microscope (Nikon, Tokyo, Japan) with a 60× objective. […] PLA puncta signals were then obtained by capturing 25 optical sections (0.5 μm) that constrained the entire Z-width of PLA-TRITC fluorescence as MAX-IP files. […] NIS-Elements AR object count feature was then utilized to analyze the quantity of PLA puncta per cell. […] As distinct local PLA puncta-TRITC auto-fluorescence (markedly different in appearance from PLA puncta) was noted, local background subtraction using a small ROI within this region was performed in a protocol similar to that described earlier (Glynn, et al., Nat Protoc. 1: 1287-1296, 2006). […]

[2] = biological target: T2, Kv2.1-mediated potassium currents (Rattus norvegicus, UniProt P15387); assay: Whole-cell voltage clamp of Kv2.1-mediated potassium current densities with or without TBOA; format: cell-based; conditions: voltage step from -80 mV to 30 mV, mean±SEM (FIG. 4A)
T2 construct: endogenous in cells; host or cells: primary rat cortical neurons
T2 sequence (P15387 1-857): T1 sequence (P15387 1-857)

[3] = 10 μM peptide + TBOA (60 μM), 3-5 hours after treatment

| Sequence | PLA puncta per square micron of neuronal soma [1] | mean Kv2.1-mediated potassium current density [2, 3] [pA/pF] | mean Kv2.1-mediated potassium current density ([2]; 10 μM peptide without TBOA) [pA/pF] |
| --- | --- | --- | --- |
| YGRKKRRQRRRSIDSFTS [TAT-DP-2, TAT-linked declustering peptide 2] | 0.06+/−0.01 #PLA puncta/sq. micron of cell soma | 65.68±12.07 | 66.86±4.76 |
| YGRKKRRQRRRDFSSIST [TAT-Sc-2, TAT-linked scramble control peptide] | 0.10+/−0.06 #PLA puncta/sq. micron of cell soma | 130.80±9.43 | 71.42±10.27 |
